Experimental findings from patent US20240272170A1 are described below.

Assay [1] addresses RLp… after cleavage to N-terminal leucine (Lp…). Nature of the assay: single-molecule dynamic sequencing on chip.
The target of assay [2] is … after cleavage to N-terminal leucine (…). Nature of the assay: single-molecule dynamic sequencing on chip.
Assay [3] concerns the target EFIAWLV after cleavage to N-terminal leucine (LV). Description: on-chip dynamic sequencing of EFIAWLV, example trace.
Assay [4] has the same target. Description: on-chip dynamic sequencing of EFIAWLV, kinetic signature plot.
The target in assay [5] is peptide with N-terminal IAA. Nature of the assay: single-molecule on-chip recognition of immobilized peptide, dye-labeled recognizer.
Assay [6] has as its target peptide with N-terminal LAA. The assay is described as above.
For assay [7], the target named is peptide with N-terminal VAA. The assay is described as above.
The target of assay [8] is EFIAWLVK after cleavage to N-terminal leucine (LVK). Nature of the assay: on-chip dynamic sequencing of the GLP-1 digest peptide EFIAWLVK, kinetic signature plot.
The target of assay [9] is … after cleavage to N-terminal leucine (…). Description: on-chip dynamic sequencing of [..] with PS691, PS610, PS961; one example trace, segment at about 113-128 min, BR=0.31.
Substrate in assay [10]: I of … / RLp… (IAYPDDD)
Description: on-chip dynamic sequencing of [..] with PS691, PS610, PS961; one example trace, segment at about 247-277 min, BR=0.27.

In assay [11] the target is RLp… after cleavage to N-terminal leucine (Lp…). Nature of the assay: on-chip dynamic sequencing of RLp[..] with PS691, PS610, PS961; one example trace, segment at about 20-52 min, BR=0.28.
Substrate in assay [12]: I of … / RLp… (IAYPDDD)
Description: on-chip dynamic sequencing of RLp[..] with PS691, PS610, PS961; one example trace, segment at about 143-155 min, BR=0.25.

In assay [13] the target is HL Peptide (stopped-flow). Description: stopped-flow rapid kinetics.
Assay [14] deals with RA Peptide (stopped-flow). Nature of the assay: stopped-flow rapid kinetics.
Assay [15] deals with RL Peptide (stopped-flow). Description: stopped-flow rapid kinetics.
The target in a further assay is T1, QP304-RAIFAG peptide.
T1 sequence (peptide): RAIFAG
Nature of the assay: single-molecule on-chip recognition run.

Assay [16] concerns the target peptide RLp…. Description: single-molecule dynamic sequencing on chip.
Assay [17] concerns the target peptide …. Description: single-molecule dynamic sequencing on chip.
Assay [18] concerns the target T2, … after cleavage to N-terminal arginine (RLIFAG).
T2 sequence (peptide, C-terminal azidolysine linked to DNA-streptavidin (p-0304)): RLIFAG
Nature of the assay: on-chip dynamic sequencing of …, lower trace.

Assay [19] has the same target. Nature of the assay: on-chip dynamic sequencing of …, upper trace.
The target of assay [20] is T3, synthetic peptide ….
T3 sequence (peptide): RLAFAYPDDD
Description: on-chip dynamic sequencing of …, example trace.

The target of assay [21] is T4, synthetic peptide ….
T4 sequence (peptide): RLAFSALGAADDD
Nature of the assay: on-chip dynamic sequencing of …, example trace. This is another data set of the same source.

In assay [22] the target is T5, synthetic peptide ….
T5 sequence (peptide): RLIFAYPDDD
Nature of the assay: on-chip dynamic sequencing of …, example trace. This is another data set of the same source.

The target in assay [23] is T6, synthetic peptide ….
T6 sequence (peptide): RLMFAYPDDD
Nature of the assay: on-chip dynamic sequencing of …, example trace. The source holds these as a separate data set.

Assay [24] deals with T7, synthetic peptide ….
T7 sequence (peptide): RLVFAYPDDD
Description: on-chip dynamic sequencing of …, example trace. The source holds these as a separate data set.

Assay [25] deals with T2, … after cleavage to N-terminal arginine (RLIFAG). Description: on-chip dynamic sequencing of …, example trace.
The target of assay [26] is T8, … after cleavage to N-terminal arginine (…).
T8 sequence (peptide): RLAASFAAQQYPDDD
Nature of the assay: on-chip dynamic sequencing of …, example trace.

Assay [27] deals with T9, RA peptide (X…-FITC, X = R).
T9 sequence (peptide, FITC on the C-terminal Lys): RAKLDEESILKQK
Description: fluorescence polarization titration, PS691 0-3000 nM. For orientation: In fluorescence polarisation assays a small probe gives low polarisation when free and higher when bound to something large.

The target in assay [28] is T3, synthetic peptide …. Description: on-chip dynamic sequencing of …, kinetic signature plot.
Assay [29] has as its target T4, synthetic peptide …. The assay is described as above. This is another data set of the same source.
The target in assay [30] is T5, synthetic peptide …. The assay is described as above. The source holds these as a separate data set.
Assay [31] has as its target T7, synthetic peptide …. The description is as above. The source holds these as a separate data set.
For assay [32], the target named is T2, … after cleavage to N-terminal arginine (RLIFAG). The assay is described as above.
For assay [33], the target named is T8, … after cleavage to N-terminal arginine (…). The assay is described as above.
The target of the next assay is T10, peptide RLMoFAYPDDD.
T10 sequence (peptide, M3 = methionine sulfoxide (Mo)): RLMFAYPDDD
Nature of the assay: on-chip dynamic sequencing of RLMoFAYPDDD, example trace.

Assay [34] has as its target peptide with N-terminal RLA. Nature of the assay: single-molecule on-chip recognition of immobilized peptide, dye-labeled recognizer.
In assay [35] the target is T4, synthetic peptide …. Nature of the assay: on-chip dynamic sequencing of a mixture of … and … on one chip, signature of ….
Assay [36] deals with T2, … after cleavage to N-terminal arginine (RLIFAG). Described as above.
The target in assay [37] is T9, RA peptide (X…-FITC, X = R). Nature of the assay: fluorescence polarization titration, recognizer 0-3000 nM, labeled peptide fixed.
For assay [38], the target named is T11, … after cleavage to N-terminal arginine (RLIFAGK).
T11 sequence (peptide): RLIFAGK
Nature of the assay: on-chip dynamic sequencing of the ubiquitin digest peptide …, kinetic signature plot.

The target of assay [39] is peptide …. Nature of the assay: on-chip dynamic sequencing of [..] with PS691, PS610, PS961; one example trace, segment at about 107-113 min, BR=0.46.
Assay [40] has as its target peptide RLp…. Description: on-chip dynamic sequencing of RLp[..] with PS691, PS610, PS961; one example trace, segment at about 3-18 min, BR=0.43.
The target of assay [41] is YRELRLLK after cleavage to N-terminal arginine (RELRLLK). Nature of the assay: single-molecule dynamic sequencing on chip.
Assay [42] shares this target. Nature of the assay: on-chip single-molecule dynamic sequencing with PS610, PS961, PS621 and aminopeptidases; median of the RS mean PD distribution; panel YREL.

B1: PS961 (designed binder)
chain: MPTAASATESAIEDTPAPARPEVDGRTKPKRQPRYHVVLWDDDDHTYQYVVVMLRSLFGHPPSRGYRMAKEMDTQGRVIVLTTTREHAELKRDQIHAFGRDRLLARSKGSMKASIEAEE
As to B1, the RS mean pulse duration (PD) was 3.4 s in assay [1] and 2.45 s in assay [2]. This molecule also gave a PD printed above the recognition segment (one trace) in assay [3] of 5.92 s. Also, the median PD (kinetic signature) in [4] is 5.3 s; in assay [8], 2.99 s. Moreover, the median pulse duration (PD) in assay [5] is 0.28 s; in assay [6], 1.21 s; in [7] it was 0.21 s. Further, the PW (pulse width of the segment in the example trace) in [9] was 2.93; in [10], 0.2; in [11] it was 3.57; in assay [12] it was 0.24.

B2: PS691 (designed binder, from a related filing)
chain: MHSKFSHAGRICGAKFKVGEPIYRCKECSFDDTCVLCVNCFNPKDHTGHHVYTTICTEFNNGICDCGDKEAWNHTLFCKAEEGGSAGSAAGSGEFMHSKFSHAGRICGAKFKVGEPIYRCKECSFDDTCVLCVNCFNPKDHTGHHVYTTICTEFNNGICDCGDKEAWNHTLFCKAEEGGGSHHHHHHHHHHGGGSGGGSGGGSGLNDFFEAQKIEWHEGGGSGGGSGGGSGLNDFFEAQKIEWHE
For orientation: koff means the first-order rate constant of dissociation. Low readings indicate a long-lived complex, high ones a short-lived complex. As a reminder, the kon is the rate constant with which the complex forms. Low values mean slow association, high ones fast association. As a reminder, the Kd is the concentration at which binding is half-saturated. Lower therefore signals higher affinity. Take B2: the figures for the koff in [13], in assay [14] and in assay [15] were 51.4 s⁻¹, 69.4 s⁻¹ and 19.7 s⁻¹, respectively. The same molecule showed a kon in [14] of 2.6e+07 M⁻¹ s⁻¹. This molecule registered a pulse duration in the assay with QP304-RAIFAG peptide of 0.16 s. Moreover, the results for the RS mean pulse duration (PD) in assay [16] and in assay [17] were 0.45 s and 0.9 s, respectively. For the same molecule, the PD printed above the recognition segment (one trace) in [18] turned out to be 0.34 s; in assay [19] it was 0.21 s; in assay [20], 0.25 s; in [21], 0.17 s; in [22], 0.29 s; in [23], 0.27 s. The PD printed above the recognition segment (one trace) in assay [24] is 0.27 s; in [25], 0.29 s; in assay [26], 0.17 s; with peptide RLMoFAYPDDD, 0.25 s. Moreover, the Kd in assay [27] and in assay [37] was 369 nM in each case. For the same molecule, the median PD (kinetic signature) in assay [28] was 0.22 s; in [29], 0.19 s; in assay [30], 0.29 s; in assay [31], 0.27 s; in assay [32], 0.24 s; in assay [33], 0.17 s. For the same molecule, the median PD (kinetic signature) in assay [35] worked out at 0.21 s; in assay [36] it was 0.26 s; in assay [38], 0.31 s. Also, the median pulse duration (PD) in [34] was 0.23 s. The PW (pulse width of the segment in the example trace) in assay [39] is 0.9; in [40], 0.54.

B3: PS621 (protein)
chain: MHSKFSHAGRICGAKFKVGEPIYRCKECSFDDTCVLCVNCFNPKDHTGHHVYTTICTEFNNGICDCGDKEAWNHTLFCKAEEG
As for B3, in assay [41], the median interpulse duration (IPD) was determined as 10.1 s. The median RS mean PD in assay [42] was found to be 0.19 s.
